Laboratory results published in patent publication US20110053841A1.

Biological target: FGFR3
Test: cell-based or functional assay

Substance: FGF4^Δ78 (from UniProt P08620 79-206) (ligand)
- concentration inducing a growth response of FDCP-FGFR3 cells (XTT): > 25 ng/mL

Substance: FGF4^Δ54N165R (from UniProt P08620 55-206) (ligand)
- concentration at which FDCP-FGFR3 cells proliferate (XTT): > 0.1 ng/mL
